From patent publication US20220204643A1 (published 2022)

Columns and labels:
[1] = target: T1, Ankyrin repeat domain 20 family member a5, pseudogene (human, UniProt A0PJZ0 1-165)
T1 construct: also called ANKRD20A5P

[2] = target: T2, GRB10 interacting GYF protein 1, transcript variant X10 (human, UniProt O75420 1-1035)
T2 construct: also called GIGYF1
T2 sequence: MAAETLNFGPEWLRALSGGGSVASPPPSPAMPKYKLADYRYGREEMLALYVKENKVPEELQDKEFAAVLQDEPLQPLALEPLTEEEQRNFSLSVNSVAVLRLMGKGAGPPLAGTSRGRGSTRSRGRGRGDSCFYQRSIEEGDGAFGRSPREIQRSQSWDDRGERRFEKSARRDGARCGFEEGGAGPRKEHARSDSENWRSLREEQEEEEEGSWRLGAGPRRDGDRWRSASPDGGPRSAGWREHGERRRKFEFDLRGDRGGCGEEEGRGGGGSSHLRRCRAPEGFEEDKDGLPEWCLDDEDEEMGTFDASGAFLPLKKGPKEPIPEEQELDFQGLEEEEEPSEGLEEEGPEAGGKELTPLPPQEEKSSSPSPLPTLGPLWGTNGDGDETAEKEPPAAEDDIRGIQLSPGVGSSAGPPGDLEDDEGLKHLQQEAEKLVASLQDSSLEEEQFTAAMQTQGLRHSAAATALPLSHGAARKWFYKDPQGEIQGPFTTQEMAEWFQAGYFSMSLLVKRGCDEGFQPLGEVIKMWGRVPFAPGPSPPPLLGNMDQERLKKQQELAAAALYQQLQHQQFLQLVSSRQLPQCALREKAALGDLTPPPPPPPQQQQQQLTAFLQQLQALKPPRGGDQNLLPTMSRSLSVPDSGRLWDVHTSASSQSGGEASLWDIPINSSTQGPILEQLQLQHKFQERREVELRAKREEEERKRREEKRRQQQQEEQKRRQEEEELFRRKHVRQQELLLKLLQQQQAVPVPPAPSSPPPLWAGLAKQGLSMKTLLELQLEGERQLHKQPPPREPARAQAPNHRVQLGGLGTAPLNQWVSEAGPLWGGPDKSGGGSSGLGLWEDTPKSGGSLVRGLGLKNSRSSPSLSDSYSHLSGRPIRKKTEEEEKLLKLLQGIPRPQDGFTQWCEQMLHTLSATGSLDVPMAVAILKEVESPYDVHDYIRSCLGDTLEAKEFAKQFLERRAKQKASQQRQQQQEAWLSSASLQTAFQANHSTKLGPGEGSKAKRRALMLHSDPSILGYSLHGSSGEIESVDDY

[3] = target: T3, Kirre like nephrin family adhesion molecule 1 (human, UniProt Q96J84 17-757, limits assumed)
T3 sequence: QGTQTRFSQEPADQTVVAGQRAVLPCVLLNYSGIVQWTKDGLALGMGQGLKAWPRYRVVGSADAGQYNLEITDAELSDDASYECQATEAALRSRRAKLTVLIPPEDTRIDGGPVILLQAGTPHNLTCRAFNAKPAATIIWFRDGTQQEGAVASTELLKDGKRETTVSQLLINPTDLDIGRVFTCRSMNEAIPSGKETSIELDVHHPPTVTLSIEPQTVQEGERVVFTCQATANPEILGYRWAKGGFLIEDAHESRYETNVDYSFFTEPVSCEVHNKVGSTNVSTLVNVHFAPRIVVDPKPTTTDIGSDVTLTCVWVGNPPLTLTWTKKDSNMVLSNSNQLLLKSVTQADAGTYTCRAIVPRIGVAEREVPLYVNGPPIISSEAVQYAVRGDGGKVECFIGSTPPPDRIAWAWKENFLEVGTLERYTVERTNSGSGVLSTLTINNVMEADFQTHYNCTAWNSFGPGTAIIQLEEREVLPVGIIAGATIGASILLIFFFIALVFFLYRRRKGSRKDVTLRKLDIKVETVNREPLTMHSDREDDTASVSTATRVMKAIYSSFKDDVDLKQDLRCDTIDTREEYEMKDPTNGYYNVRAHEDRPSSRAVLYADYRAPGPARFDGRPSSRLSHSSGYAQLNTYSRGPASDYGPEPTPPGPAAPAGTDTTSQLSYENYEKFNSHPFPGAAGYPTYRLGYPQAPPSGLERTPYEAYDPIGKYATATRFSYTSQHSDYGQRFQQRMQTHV

[4] = target: T4, killer cell lectin like receptor C1, transcript variant 3 (human, UniProt P26715 1-233)
T4 construct: also called KLRC1
T4 sequence (P26715 other isoform, or with tags, fused parts or gaps mutant limits assumed): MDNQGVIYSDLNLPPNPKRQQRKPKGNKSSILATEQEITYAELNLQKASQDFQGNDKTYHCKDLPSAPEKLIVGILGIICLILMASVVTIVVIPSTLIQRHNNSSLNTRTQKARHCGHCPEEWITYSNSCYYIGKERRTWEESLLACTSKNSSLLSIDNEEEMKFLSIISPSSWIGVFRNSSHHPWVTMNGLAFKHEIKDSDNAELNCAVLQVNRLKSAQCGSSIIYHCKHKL

[5] = target: T5, neural retina leucine zipper, transcript variant X4 (human, UniProt P54845 1-237)
T5 construct: also called NRL
T5 sequence (P54845 whole entry, change not shown): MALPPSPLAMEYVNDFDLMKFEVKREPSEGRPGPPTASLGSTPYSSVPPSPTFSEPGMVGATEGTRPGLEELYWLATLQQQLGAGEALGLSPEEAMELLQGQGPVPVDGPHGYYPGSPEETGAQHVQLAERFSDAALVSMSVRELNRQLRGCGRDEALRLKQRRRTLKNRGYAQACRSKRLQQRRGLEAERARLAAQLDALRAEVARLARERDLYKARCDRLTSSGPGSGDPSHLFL

[6] = target: T6, Egf like and emi domain containing 1, pseudogene (human, UniProt Q0D2K5 1-195); assay: protein array
T6 construct: on protein array; also called EGFEM1P
T6 sequence: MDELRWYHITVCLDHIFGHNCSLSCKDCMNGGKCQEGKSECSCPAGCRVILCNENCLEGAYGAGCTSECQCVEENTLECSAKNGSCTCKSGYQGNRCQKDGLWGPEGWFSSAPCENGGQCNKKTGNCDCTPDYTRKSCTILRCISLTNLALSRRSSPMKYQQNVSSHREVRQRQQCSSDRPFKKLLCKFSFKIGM

[7] = target: T7, coiled-coil domain containing 74B, transcript variant 2 (human, UniProt Q96LY2 1-380)
T7 construct: also called CCDC74B
T7 sequence (Q96LY2 other isoform, or with tags, fused parts or gaps mutant limits assumed): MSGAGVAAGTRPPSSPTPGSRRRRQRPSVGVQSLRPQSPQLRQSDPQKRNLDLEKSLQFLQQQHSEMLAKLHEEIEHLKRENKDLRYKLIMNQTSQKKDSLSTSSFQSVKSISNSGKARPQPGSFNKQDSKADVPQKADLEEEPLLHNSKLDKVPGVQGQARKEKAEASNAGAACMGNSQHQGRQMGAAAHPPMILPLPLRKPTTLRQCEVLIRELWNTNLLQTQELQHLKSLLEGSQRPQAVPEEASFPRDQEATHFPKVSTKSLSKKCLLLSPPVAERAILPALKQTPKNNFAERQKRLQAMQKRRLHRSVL

[8] = target: T8, BCL2 associated athanogene 2 (human, UniProt O95816 2-211)
T8 construct: also called BAG2
T8 sequence (O95816 2-211 limits assumed): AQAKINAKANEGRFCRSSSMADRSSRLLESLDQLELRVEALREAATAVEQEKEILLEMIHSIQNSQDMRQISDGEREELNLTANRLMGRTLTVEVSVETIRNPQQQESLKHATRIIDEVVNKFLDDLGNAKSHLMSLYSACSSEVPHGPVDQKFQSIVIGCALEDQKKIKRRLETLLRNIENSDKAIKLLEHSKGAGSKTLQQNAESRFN

[9] = target: T9, heat shock protein family A (Hsp70) member 2 (human, UniProt P54652 1-639)
T9 construct: also called HSPA2
T9 sequence (P54652 whole entry): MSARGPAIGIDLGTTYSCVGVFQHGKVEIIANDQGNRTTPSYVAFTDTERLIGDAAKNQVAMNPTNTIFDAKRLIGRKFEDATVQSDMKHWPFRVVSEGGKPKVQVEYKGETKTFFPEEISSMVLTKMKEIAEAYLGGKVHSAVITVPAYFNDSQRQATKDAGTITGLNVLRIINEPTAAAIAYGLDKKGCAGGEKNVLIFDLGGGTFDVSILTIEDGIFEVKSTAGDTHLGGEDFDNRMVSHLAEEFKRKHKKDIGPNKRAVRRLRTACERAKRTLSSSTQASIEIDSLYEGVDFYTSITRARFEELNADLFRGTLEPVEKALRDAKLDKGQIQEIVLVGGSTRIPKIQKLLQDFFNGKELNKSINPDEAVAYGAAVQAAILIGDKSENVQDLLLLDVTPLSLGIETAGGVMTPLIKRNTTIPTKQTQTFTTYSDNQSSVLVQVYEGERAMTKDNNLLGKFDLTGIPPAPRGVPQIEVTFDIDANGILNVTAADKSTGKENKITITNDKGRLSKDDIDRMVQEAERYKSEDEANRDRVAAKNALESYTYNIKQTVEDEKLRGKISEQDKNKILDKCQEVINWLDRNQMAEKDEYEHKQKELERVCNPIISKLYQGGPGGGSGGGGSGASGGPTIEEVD

[10] = target: T10, HSPA (Hsp70) binding protein 1, transcript variant 2 (human, UniProt Q9NZL4 1-359)
T10 construct: also called HSPBP1
T10 sequence: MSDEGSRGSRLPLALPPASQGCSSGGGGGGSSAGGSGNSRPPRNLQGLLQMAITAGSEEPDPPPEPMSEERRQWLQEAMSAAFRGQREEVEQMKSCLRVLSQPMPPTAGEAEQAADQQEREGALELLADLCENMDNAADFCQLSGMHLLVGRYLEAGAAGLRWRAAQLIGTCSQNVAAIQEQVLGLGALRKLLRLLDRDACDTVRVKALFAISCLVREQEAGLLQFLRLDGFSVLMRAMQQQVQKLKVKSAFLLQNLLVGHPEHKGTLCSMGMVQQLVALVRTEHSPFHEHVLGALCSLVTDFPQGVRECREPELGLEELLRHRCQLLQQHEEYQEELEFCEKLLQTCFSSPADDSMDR

[11] = target: T11, C-X-C motif chemokine receptor 4, transcript variant 2 (human, UniProt P61073 1-352)
T11 construct: also called CXCR4
T11 sequence (P61073 whole entry, change not shown): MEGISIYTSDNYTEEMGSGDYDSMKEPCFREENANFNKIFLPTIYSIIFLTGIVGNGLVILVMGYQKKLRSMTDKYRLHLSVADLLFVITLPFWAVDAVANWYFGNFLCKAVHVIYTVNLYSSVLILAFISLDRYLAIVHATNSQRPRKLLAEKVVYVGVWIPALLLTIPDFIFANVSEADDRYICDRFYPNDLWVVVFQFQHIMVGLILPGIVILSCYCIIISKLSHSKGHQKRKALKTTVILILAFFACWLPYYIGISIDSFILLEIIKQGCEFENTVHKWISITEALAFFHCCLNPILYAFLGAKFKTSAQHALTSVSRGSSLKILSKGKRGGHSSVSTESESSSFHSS

[12] = target: T12, Long intergenic non-protein coding rna 242 (human, UniProt Q5T6M2 1-205)
T12 construct: also called LINC00242
T12 chain: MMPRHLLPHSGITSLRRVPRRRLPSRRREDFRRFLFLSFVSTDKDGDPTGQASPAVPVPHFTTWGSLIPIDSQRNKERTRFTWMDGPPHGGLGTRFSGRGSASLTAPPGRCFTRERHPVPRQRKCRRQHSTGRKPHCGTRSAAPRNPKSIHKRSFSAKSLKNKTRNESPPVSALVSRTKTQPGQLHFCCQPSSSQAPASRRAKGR

[13] = target: T13, calcium and integrin binding 1, transcript variant b (human, UniProt Q99828 2-191)
T13 construct: also called CIB1
T13 sequence: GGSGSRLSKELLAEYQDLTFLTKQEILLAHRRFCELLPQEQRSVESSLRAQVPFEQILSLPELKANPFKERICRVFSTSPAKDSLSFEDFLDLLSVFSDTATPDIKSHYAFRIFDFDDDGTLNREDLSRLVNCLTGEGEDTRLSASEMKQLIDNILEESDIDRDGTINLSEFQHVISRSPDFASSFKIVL

T1 sequence (A0PJZ0 whole entry, the tested form may be a part): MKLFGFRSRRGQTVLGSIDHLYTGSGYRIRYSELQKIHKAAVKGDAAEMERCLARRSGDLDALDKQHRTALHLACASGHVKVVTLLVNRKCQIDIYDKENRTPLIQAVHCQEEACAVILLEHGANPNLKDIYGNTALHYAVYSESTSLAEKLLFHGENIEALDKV

B1: TPRO1002 (antibody, V domains shown)
VH: EVQLVESGGGVIKPGGSLKLSCEGSGFTLDDYVMHWVRQAPGKGLEWISSISGDGTRTYYADSVKGRFTISRNNGKNSLYLQMDSLRREDTALYYCAKDARLAYYGMDVWGQGTTVTVSS
VL: QSALTQPASVSGSPGQSITISCTGTSSDIGGYDLVSWYQHHPGKAPKLVISEGSKRPSGVSNRFFGSKSGNTASLTISGLQAEDEADYYCCSFTGTSTFVFGTGTKVTVL
binding result [1]: binds | binding result [2]: binds | binding result [3]: binds

B2: TREC1003 (antibody, V domains shown)
VH: QVQLVQSGSEVKKPGASVRLACKTSGYTFSNYGVSWVRQGPGRGLEWLGWISGYNGRTHSADKFRDRVTLTTDTSTTTVYVDLKNLTSDDTAVYYCARVGTSHWYSDSWGQGTLVTVSS
VL: QSVLTQPPSVSGAPGQRVTISCAGSYSNIGAGYDVHWYRQLPGTAPTLLIYSNNNRPSGVSDRFSGSKSGTSASLAITGLQAEDEADYYCQSFDSSLSRSVFGTGTKVTVL
binding result [4]: binds

B3: TSAR1001 (antibody, V domains shown)
VH: EVQLVESGGGMVQPGESLRLSCAASGFDFTSYWMAWVRQAPGKGLEWVANMNADGSEKHYVDSVKGRFSISRDNAKKLLFLQMNSLTVDDTGVYYCARDEGRREGAWGQGTQVIVSA
VL: EIVLTQSPATLSFSPGDRATLSCRASQNINRFLAWYQQKPGQTPRLLIYDASTRATGIPARFSGSGSGTDFSLIISSLEPEDFAIYYCQQRNNWPITFGPGTKVDVK
binding result [5]: binds

B4: TBRE1036 (antibody, V domains shown)
VH: QVQLVESGGGVVQPGRSLRLSCAASGFTFSSYAMHWVRQAPGKGLEWVAVISYDGSNKYYADSLKGRFTISRDNSKDTLYLQVNSLRPEDTAVYYCARVNIAAAGTLDYWGQGTLVTVSS
VL: EIVLTQSPGTLSLSPGERATLSCRASQSVSSRYLAWYQQKPGQAPRLLIHGASSRATGIPDRFSGSGSGTDFTLTISRLEPEDFAVYYCQQYGSAWTFGQGTKVEIKR
notes: VH/VL only
binding result [6]: binds

B5: TSAR1003 (antibody, V domains shown)
VH: QLQLQESGPGLVKPSETLSLTCTVSGVSIGTSSYYWGWIRQPPAKGLEWIGSIYYSGSTYYNPSLKNRVTISVDTSKNHFSLKLSSVTAADTAVYYCARHRTGQYYYNSWGQGTLVTVSS
VL: SSELTQDPAVSVALGQTVRITCQGDSLRTDYATWYQQKPGQAPILVFYGEDNRPSGIPDRFSGSSSGNTASLTITGAQAEDEADYYCNSRDSSGHHWVFGGGTKLTVL
binding result [7]: binds

B6: TSAR1005 (antibody, V domains shown)
VH: QVQLVESGGGVVQPGRSLRLSCVASGFTFSNYAMHWVRQAPGKGLEWVAVIWYDGSNEYYRDSVEGRFTISRDSSKNTLYLLVNSLRAEDTAVYYCARGNGPKSGKYSDFDYWGQGTLVTVSS
VL: DVVMTQSPLSLPVTLGQAASISCRSSQSLVYSDGNTYLNWFQQRPGQSPRRLIYKVSNRESGVPDRFSGSGSGTDFTLQISRVEAEDVGIYYCMQGAHWPPITFGQGTRLEIKR
binding result [8]: binds | binding result [9]: binds | binding result [10]: binds

B7: TSAR1006 (antibody, V domains shown)
VH: QVQLVQSGTEVKKPGASVKVSCKASGYRFTSNGISWVRQAPGQGLQWMGWISTDSGNTNYAQSFQGRVTLTRDTSTNTAYLELRRLRSEDTAVYYCARDKSWYFDYWGQGTLVSVSS
VL: SYELTQPPSVSVSPGQTARITCSGDALPKKYVFWYQQRSGQAPVLVIYEDSKRPSGIPDRFSGSSSGTLATLTISGAQVEDEADYYCYSTDTIGNWVFGGGTRLTVL
binding result [11]: binds | binding result [12]: binds

B8: TSTO1001 (antibody, V domains shown)
VH: VVQLLESGGGLVHPGGSLRISCAASEFTFSAYAMTWVRQAPGKGLEWVSAISGSGGRTYYADSLKGRFTISRDNSKHTLYLLMNSLRVEDTAVYYCASRYRSPSGAFDIWGQGTLVTVSS
VL: EIVMTQSPATLSVSQGERATLSCRASQSVGSDLAWYQQKPGQAPRLLIYDASARATDIPARFSGSGSETEFTLTISSLQSEDFAVYYCQHYSDWRALTFGGGTKVEIKR
binding result [13]: binds
